The target of one data set is T1, VEGF-A121 (Homo sapiens) (UniProt P15692).
T1 sequence: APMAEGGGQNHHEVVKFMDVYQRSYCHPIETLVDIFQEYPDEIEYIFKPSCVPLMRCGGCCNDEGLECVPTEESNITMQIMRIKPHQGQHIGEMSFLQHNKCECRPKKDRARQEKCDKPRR
The note with it: all G 2'-F; A,C,U 2'-OMe; Sp3 (1,3-propanediol) joins the two parts (position 9); 5' C6NH2; 3' idT; direct TR-FRET, RT. For orientation: In TR-FRET formats the signal depends on donor and acceptor labels being close together.

The next data set relates to T2, VEGF-A165 (Homo sapiens).
T2 sequence: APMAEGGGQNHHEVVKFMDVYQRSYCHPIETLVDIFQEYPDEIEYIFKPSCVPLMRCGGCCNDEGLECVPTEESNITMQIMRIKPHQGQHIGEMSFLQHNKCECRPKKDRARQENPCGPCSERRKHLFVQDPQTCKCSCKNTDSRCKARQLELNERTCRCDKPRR
Particulars: all G 2'-F; A,C,U 2'-OMe; Sp3 (1,3-propanediol) joins the two parts (position 9); 5' C6NH2; 3' idT; direct TR-FRET, RT.

On to “AGGCCGCCCCGCGCGGAGGGGUUUCAUUAUCCCGUUUGGCGGCUU [Aptamer 47]”, for which the Kd (commonly a measure of binding affinity in units of concentration) is 11 nM with VEGF-A121 (Homo sapiens) and 2.1 nM with VEGF-A165 (Homo sapiens).
